Test results as given in the supplement of paper PMC9112550, “Optimization of the antimicrobial peptide Bac7 by deep mutational scanning” (BMC Biology, 2022).

Tested on: Escherichia coli TOP10
Experiment: shrunken log2 fold change of peptide-encoding DNA abundance (4.5 h post-induction vs induction); higher = less antimicrobial activity (less host growth inhibition)
Details: time post-induction: 4.5 h; library: site-saturation at positions 5, 18, 19, 20
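Further: peptides expressed intracellularly from a pBAD plasmid library in pooled LB shake-flask culture, induced with 0.3% L-arabinose, DNA abundance read by NGS, three biological replicates, DESeq2 with apeglm shrinkage.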

Row | Sequence | shrunken log2 fold change
1 | RRIRHRPPRLPRPRPRPRLGPRP | 0.143
2 | RRIRIRPPRLPRPRPRPDVPPRP | -0.372
3 | RRIRHRPPRLPRPRPRPYANPRP | -0.271
4 | RRIRLRPPRLPRPRPRPAESPRP | 0.197
5 | RRIRIRPPRLPRPRPRPIQRPRP | -0.265
6 | RRIRKRPPRLPRPRPRPVHKPRP | 0.288
7 | RRIRMRPPRLPRPRPRPMWYPRP | -0.288
8 | RRIRNRPPRLPRPRPRPPRLPRP | 0.514
9 | RRIRLRPPRLPRPRPRPDHVPRP | -0.00963
10 | RRIRCRPPRLPRPRPRPHFFPRP | -0.633
11 | RRIRIRPPRLPRPRPRPFDRPRP | 4.11
12 | RRIRGRPPRLPRPRPRPCPNPRP | 0.0353
13 | RRIRCRPPRLPRPRPRPPIWPRP | 0.134
14 | RRIRIRPPRLPRPRPRPLRAPRP | 0.367
15 | RRIRSRPPRLPRPRPRPFWPPRP | 0.315
16 | RRIRERPPRLPRPRPRPIGHPRP | -0.244
17 | RRIRVRPPRLPRPRPRPGRIPRP | 0.0466
18 | RRIRDRPPRLPRPRPRPVTSPRP | -0.2
19 | RRIRIRPPRLPRPRPRPEWYPRP | -0.142
20 | RRIRVRPPRLPRPRPRPRFKPRP | 0.107
21 | RRIRYRPPRLPRPRPRPDCWPRP | -0.105
22 | RRIRPRPPRLPRPRPRPTSVPRP | 0.181
23 | RRIRVRPPRLPRPRPRPSGIPRP | -0.931
24 | RRIRARPPRLPRPRPRPHQCPRP | -0.0483
25 | RRIRTRPPRLPRPRPRPFMSPRP | 0.0219

Row | Sequence | shrunken log2 fold change
26 | RRIRMRPPRLPRPRPRPKDRPRP | 1.87
27 | RRIRPRPPRLPRPRPRPCPSPRP | 0.0668
28 | RRIRYRPPRLPRPRPRPTHHPRP | -0.509
29 | RRIRERPPRLPRPRPRPHECPRP | -0.0253
30 | RRIRLRPPRLPRPRPRPWTHPRP | -0.207
31 | RRIRCRPPRLPRPRPRPQKCPRP | -0.0526
32 | RRIRMRPPRLPRPRPRPIDYPRP | -0.0477
33 | RRIRPRPPRLPRPRPRPALDPRP | 0.628
34 | RRIRNRPPRLPRPRPRPHTYPRP | -0.501
35 | RRIRQRPPRLPRPRPRPPCYPRP | -0.0902
36 | RRIRPRPPRLPRPRPRPENHPRP | -0.0822
37 | RRIRSRPPRLPRPRPRPIFSPRP | -0.617
38 | RRIRARPPRLPRPRPRPDTMPRP | 0.0783
39 | RRIRLRPPRLPRPRPRPLSKPRP | 0.0272
40 | RRIRPRPPRLPRPRPRPRMNPRP | 0.0159
41 | RRIRLRPPRLPRPRPRPGDFPRP | 0.017
42 | RRIRYRPPRLPRPRPRPVWDPRP | -0.0448
43 | RRIRSRPPRLPRPRPRPPRWPRP | 0.722
44 | RRIRIRPPRLPRPRPRPHASPRP | -0.012
45 | RRIRNRPPRLPRPRPRPAKMPRP | -0.0794
46 | RRIRPRPPRLPRPRPRPRDRPRP | 0.18
47 | RRIRRRPPRLPRPRPRPTVQPRP | 0.113
48 | RRIRARPPRLPRPRPRPLEHPRP | 0.0565
49 | RRIRGRPPRLPRPRPRPWQPPRP | -0.12
50 | RRIRTRPPRLPRPRPRPVFRPRP | -0.516

Row | Sequence | shrunken log2 fold change
51 | RRIRCRPPRLPRPRPRPILSPRP | -0.362
52 | RRIRQRPPRLPRPRPRPTEQPRP | 0.0331
53 | RRIRCRPPRLPRPRPRPNCTPRP | -0.322
54 | RRIRQRPPRLPRPRPRPVAAPRP | 0.51
55 | RRIRIRPPRLPRPRPRPERYPRP | -0.175
56 | RRIRKRPPRLPRPRPRPRDHPRP | 0.494
57 | RRIRERPPRLPRPRPRPGRHPRP | -0.0636
58 | RRIRLRPPRLPRPRPRPWKFPRP | -0.00232
59 | RRIRHRPPRLPRPRPRPEITPRP | -0.0206
60 | RRIRRRPPRLPRPRPRPYYDPRP | -1.02
61 | RRIRDRPPRLPRPRPRPGHEPRP | -0.00201
62 | RRIRVRPPRLPRPRPRPDNNPRP | -0.796
63 | RRIRSRPPRLPRPRPRPVAGPRP | 0.0927
64 | RRIRRRPPRLPRPRPRPVYGPRP | -0.0668
65 | RRIRGRPPRLPRPRPRPANDPRP | 0.902
66 | RRIRCRPPRLPRPRPRPNKTPRP | -0.0276
67 | RRIRIRPPRLPRPRPRPSINPRP | -1.03
68 | RRIRLRPPRLPRPRPRPPRCPRP | 0.744
69 | RRIRTRPPRLPRPRPRPLDYPRP | -2.42
70 | RRIRQRPPRLPRPRPRPMEQPRP | -0.074
71 | RRIRIRPPRLPRPRPRPTQFPRP | 0.000325
72 | RRIRARPPRLPRPRPRPHVSPRP | 0.0459
73 | RRIRCRPPRLPRPRPRPERAPRP | 0.675
74 | RRIRNRPPRLPRPRPRPTRPPRP | 0.663
75 | RRIRTRPPRLPRPRPRPNCVPRP | 0.00481

Row | Sequence | shrunken log2 fold change
76 | RRIRHRPPRLPRPRPRPQYWPRP | -0.806
77 | RRIRFRPPRLPRPRPRPRNDPRP | -0.218
78 | RRIRYRPPRLPRPRPRPLGGPRP | -0.0546
79 | RRIRIRPPRLPRPRPRPAHAPRP | -0.0674
80 | RRIRNRPPRLPRPRPRPCPWPRP | -0.141
81 | RRIRMRPPRLPRPRPRPIAPPRP | 0.47
82 | RRIRHRPPRLPRPRPRPKHLPRP | -0.237
83 | RRIRHRPPRLPRPRPRPHWNPRP | -0.407
84 | RRIRDRPPRLPRPRPRPGKFPRP | -0.0736
85 | RRIRLRPPRLPRPRPRPSEEPRP | -0.0637
86 | RRIRIRPPRLPRPRPRPIMCPRP | -0.0373
87 | RRIRPRPPRLPRPRPRPKTHPRP | -0.0419
88 | RRIRGRPPRLPRPRPRPVLCPRP | 0.635
89 | RRIRLRPPRLPRPRPRPMFYPRP | -0.361
90 | RRIRNRPPRLPRPRPRPAMWPRP | -0.0838
91 | RRIRSRPPRLPRPRPRPMDSPRP | -0.279
92 | RRIRARPPRLPRPRPRPYLMPRP | -0.648
93 | RRIRRRPPRLPRPRPRPYYHPRP | -0.645
94 | RRIRDRPPRLPRPRPRPAGEPRP | 0.0114
95 | RRIRLRPPRLPRPRPRPGDLPRP | 0.00844
96 | RRIRLRPPRLPRPRPRPKNLPRP | 0.0548
97 | RRIRSRPPRLPRPRPRPPKRPRP | 0.626
98 | RRIRVRPPRLPRPRPRPVTDPRP | -0.171
99 | RRIRTRPPRLPRPRPRPVMQPRP | -0.0482
100 | RRIRVRPPRLPRPRPRPDSFPRP | -0.0784

Row | Sequence | shrunken log2 fold change
101 | RRIRCRPPRLPRPRPRPDRHPRP | 0.0552
102 | RRIRVRPPRLPRPRPRPKAIPRP | -0.0609
103 | RRIRPRPPRLPRPRPRPAAHPRP | 0.0385
104 | RRIRPRPPRLPRPRPRPNPVPRP | -0.0737
105 | RRIRRRPPRLPRPRPRPKYFPRP | 0.162
106 | RRIRFRPPRLPRPRPRPYDHPRP | -0.0263
107 | RRIRGRPPRLPRPRPRPFFDPRP | 0.541
108 | RRIRIRPPRLPRPRPRPCMPPRP | -0.908
109 | RRIRMRPPRLPRPRPRPDENPRP | 2.68
110 | RRIRGRPPRLPRPRPRPIPNPRP | 0.172
111 | RRIRLRPPRLPRPRPRPGLGPRP | 0.342
112 | RRIRKRPPRLPRPRPRPCGQPRP | 0.0682
113 | RRIRDRPPRLPRPRPRPHSNPRP | 0.0359
114 | RRIRFRPPRLPRPRPRPGDSPRP | -0.305
115 | RRIRNRPPRLPRPRPRPEAHPRP | -0.0208
116 | RRIRIRPPRLPRPRPRPMGDPRP | -0.114
117 | RRIRPRPPRLPRPRPRPNLNPRP | -0.369
118 | RRIRMRPPRLPRPRPRPQLWPRP | 0.998
119 | RRIRTRPPRLPRPRPRPFSEPRP | -0.0338
120 | RRIRVRPPRLPRPRPRPDTLPRP | -0.712
121 | RRIRLRPPRLPRPRPRPPCCPRP | -0.0934
122 | RRIRKRPPRLPRPRPRPTLDPRP | 0.877
123 | RRIRCRPPRLPRPRPRPNTYPRP | -0.774
124 | RRIRGRPPRLPRPRPRPADEPRP | 0.239
125 | RRIRWRPPRLPRPRPRPVTYPRP | 0.186
